Measurements as given in patent US5747322.

Tests used:
[1] = biological target: T1, Suc-AAP-Ala-pNA
T1 sequence (peptide, N-terminal Suc; C-terminal pNA): AAPA

[2] = biological target: Suc-AAP-Arg-pNA
[3] = biological target: Suc-AAP-Gln-pNA
[4] = biological target: T2, Suc-AAP-Leu-pNA
T2 sequence (peptide, N-terminal Suc; C-terminal pNA): AAPL

[5] = biological target: Suc-AAP-Lys-pNA
[6] = biological target: Suc-AAP-Met-pNA
[7] = biological target: Suc-AAP-Orn-pNA
[8] = biological target: Suc-AAP-Phe-pNA
[9] = biological target: T3, Z-GPR-pNA
T3 sequence (peptide, N-terminal Z; C-terminal pNA): GPR

[10] = biological target: bovine calf skin collagen (type I collagen) (bovine) (UniProt P02453)

Binder	kcat /Km [1] [M⁻¹ s⁻¹]	kcat /Km [2] [M⁻¹ s⁻¹]	kcat /Km [3] [M⁻¹ s⁻¹]	kcat /Km [4] [M⁻¹ s⁻¹]	kcat /Km [5] [M⁻¹ s⁻¹]	kcat /Km [6] [M⁻¹ s⁻¹]	kcat /Km [7] [M⁻¹ s⁻¹]	kcat /Km [8] [M⁻¹ s⁻¹]	kcat /Km [9] [M⁻¹ s⁻¹]	collagen cleavage (3/4, 1/4 fragmentation pattern) [10] [%]
crab collagenase D226G/G189D (enzyme) IVGGVEAVPNSWPHQAALFIDDMYFCGGSLISPEWILTAAHCMDGAGFVDVVLGAHNIREDEATQVTIQSTDFTVHENYNSFVISNDIAVIRLPSPVTLTAAIATVGLPSTDVGVGTVVTPTGWGLPSDSALGISDVLRQVDVPIMSNADCDAVYGIVTDGNICIDSTGGKDTCNGDSGGPLNYNGLTYGITSFGAAAGCEAGYPGAFTRVTYFLDWIQTQTGITP	867	917000	5500	51700	23300	23300	4800	23300	14500	
crab collagenase D226G (enzyme) IVGGVEAVPNSWPHQAALFIDDMYFCGGSLISPEWILTAAHCMDGAGFVDVVLGAHNIREDEATQVTIQSTDFTVHENYNSFVISNDIAVIRLPSPVTLTAAIATVGLPSTDVGVGTVVTPTGWGLPSDSALGISDVLRQVDVPIMSNADCDAVYGIVTDGNICIDSTGGKGTCNGDSGGPLNYNGLTYGITSFGAAAGCEAGYPGAFTRVTYFLDWIQTQTGITP	317	48300	5500	80000	400	48300	383	115000	367	
recombinant crab serine collagenase 1 (mature, wild type) (enzyme) IVGGVEAVPNSWPHQAALFIDDMYFCGGSLISPEWILTAAHCMDGAGFVDVVLGAHNIREDEATQVTIQSTDFTVHENYNSFVISNDIAVIRLPSPVTLTAAIATVGLPSTDVGVGTVVTPTGWGLPSDSALGISDVLRQVDVPIMSNADCDAVYGIVTDGNICIDSTGGKGTCNGDSGGPLNYNGLTYGITSFGAAAGCEAGYPDAFTRVTYFLDWIQTQTGITP	2170	1.33e+06	18300	152000	60000	70000	7830	158000	7170	> 50
